B1: Clathrin heavy chain 1 (Arabidopsis thaliana (Mouse-ear cress)), Q0WNJ6 (parent)
chain: MAAANAPIIMKEVLTLPSVGIGQQFITFTNVTMESDKYICVRETAPQNSVVIIDMNMPMQPLRRPITADSALMNPNSRILALKAQVPGTTQDHLQIFNIEAKAKLKSHQMPEQVAFWKWITPKMLGLVTQTSVYHWSIEGDSEPVKMFDRTANLANNQIINYKCSPNEKWLVLIGIAPGSPERPQLVKGNMQLFSVDQQRSQALEAHAASFAQFKVPGNENPSILISFASKSFNAGQITSKLHVIELGAQPGKPSFTKKQADLFFPPDFADDFPVAMQVSHKFNLIYVITKLGLLFVYDLETASAIYRNRISPDPIFLTSEASSVGGFYAINRRGQVLLATVNEATIIPFISGQLNNLELAVNLAKRGNLPGAENLVVQRFQELFAQTKYKEAAELAAESPQGILRTPDTVAKFQSVPVQAGQTPPLLQYFGTLLTRGKLNSYESLELSRLVVNQNKKNLLENWLAEDKLECSEELGDLVKTVDNDLALKIYIKARATPKVVAAFAERREFDKILIYSKQVGYTPDYMFLLQTILRTDPQGAVNFALMMSQMEGGCPVDYNTITDLFLQRNLIREATAFLLDVLKPNLPEHAFLQTKVLEINLVTFPNVADAILANGMFSHYDRPRVAQLCEKAGLYIQSLKHYSELPDIKRVIVNTHAIEPQALVEFFGTLSSEWAMECMKDLLLVNLRGNLQIIVQACKEYCEQLGVDACIKLFEQFKSYEGLYFFLGSYLSMSEDPEIHFKYIEAAAKTGQIKEVERVTRESNFYDAEKTKNFLMEAKLPDARPLINVCDRFGFVPDLTHYLYTNNMLRYIEGYVQKVNPGNAPLVVGQLLDDECPEDFIKGLILSVRSLLPVEPLVAECEKRNRLRLLTQFLEHLVSEGSQDVHVHNALGKIIIDSNNNPEHFLTTNPYYDSKVVGKYCEKRDPTLAVVAYRRGQCDEELINVTNKNSLFKLQARYVVERMDGDLWEKVLTEENEYRRQLIDQVVSTALPESKSPEQVSAAVKAFMTADLPHELIELLEKIVLQNSAFSGNFNLQNLLILTAIKADPSRVMDYINRLDNFDGPAVGEVAVDAQLYEEAFAIFKKFNLNVQAVNVLLDNVRSIERAVEFAFRVEEDAVWSQVAKAQLREGLVSDAIESFIRADDTTQFLEVIRASEDTNVYDDLVRYLLMVRQKVKEPKVDSELIYAYAKIERLGEIEEFILMPNVANLQHVGDRLYDEALYEAAKIIYAFISNWAKLAVTLVKLQQFQGAVDAARKANSAKTWKEVCFACVDAEEFRLAQICGLNIIIQVDDLEEVSEYYQNRGCFNELISLMESGLGLERAHMGIFTELGVLYARYRYEKLMEHIKLFSTRLNIPKLIRACDEQQHWQELTYLYIQYDEFDNAATTVMNHSPEAWEHMQFKDIVAKVANVELYYKAVHFYLQEHPDIINDLLNVLALRLDHTRVVDIMRKAGHLRLIKPYMVAVQSNNVSAVNEALNEIYAEEEDYDRLRESIDLHDSFDQIGLAQKIEKHELVEMRRVAAYIYKKAGRWKQSIALSKKDNMYKDCMETASQSGDHDLAEQLLVYFIEQGKKECFATCLFVCYDLIRPDVALELAWINNMIDFAFPYLLQFIREYSGKVDELIKDKLEAQKEVKAKEQEEKDVMSQQNMYAQLLPLALPAPPMPGMGGGGYGPPPQMGGMPGMSGMPPMPPYGMPPMGGY
partner: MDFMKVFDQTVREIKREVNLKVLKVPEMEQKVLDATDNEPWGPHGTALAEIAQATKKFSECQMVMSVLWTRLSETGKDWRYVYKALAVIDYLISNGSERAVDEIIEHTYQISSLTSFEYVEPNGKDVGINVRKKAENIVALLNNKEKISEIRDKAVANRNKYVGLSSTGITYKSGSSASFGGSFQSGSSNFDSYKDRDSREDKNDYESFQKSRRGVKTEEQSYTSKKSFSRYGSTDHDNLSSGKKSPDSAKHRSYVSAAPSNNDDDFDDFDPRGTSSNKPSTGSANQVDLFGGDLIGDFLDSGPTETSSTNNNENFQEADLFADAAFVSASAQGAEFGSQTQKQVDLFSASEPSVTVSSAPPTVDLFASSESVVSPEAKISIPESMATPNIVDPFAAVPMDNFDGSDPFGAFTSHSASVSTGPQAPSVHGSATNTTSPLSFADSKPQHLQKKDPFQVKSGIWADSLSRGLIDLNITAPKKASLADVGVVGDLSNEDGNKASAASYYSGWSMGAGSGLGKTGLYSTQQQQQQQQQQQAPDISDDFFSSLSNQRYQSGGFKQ

Variants of: B1
Conditions: with epn1_arath EPSIN1, Q8VY07

Variant | effect of a mutation on the interaction
L470R | disrupting interaction

— IntAct's records for PubMed 16905657
